Data: patent US20250277060A1

Experiments:
[1] = biological target: canine IgM µ-chain antigen (protein accession number E2RE31) (canine (Canis lupus familiaris)); assay: staining of cells from CLBL-1 xenograft tumours
[2] = biological target: canine IgM µ-chain antigen (protein accession number E2RE31) (canine (Canis lupus familiaris)); assay: flow cytometry screening of hybridoma clones on CLBL-1 cells

B1: CL-m17A11 (antibody, V domains shown)
VH: QIQLQQSGPELVKPGASVKVSCKASGYSFTDYNIYWVKQSHGKSLEWIGFFDPHNGNTTYNQKFKGKATLTVDKSSSTAFMHLNSLTSEDSAVYYCAREGYLYAMDYWGQGTSVTVSS
VL: DVLMTQTPLSLPVSLGDQASISCRSSQSIEHSNGNTYLEWYLQKPGQAPKLLIFKVSNRFSGVPDRFSGSGSGTDFTLKISRMEAEDLGVYYCFQGSHVPPTFGGGTKLEIKR
% of tumour cells positive [1]: > 95% | % binding (tier threshold of column) [2]: > 80%

B2: CL-c17A11 (antibody, V domains shown)
VH: QIQLQQSGPELVKPGASVKVSCKASGYSFTDYNIYWVKQSHGKSLEWIGFFDPHNGNTTYNQKFKGKATLTVDKSSSTAFMHLNSLTSEDSAVYYCAREGYLYAMDYWGQGTSVTVSS
VL: DVLMTQTPLSLPVSLGDQASISCRSSQSIEHSNGNTYLEWYLQKPGQAPKLLIFKVSNRFSGVPDRFSGSGSGTDFTLKISRMEAEDLGVYYCFQGSHVPPTFGGGTKLEIKR
% of tumour cells positive [1]: > 95%
